Source: the nanobody polyreactivity screen of Harvey et al. (2022)

Test: yeast display, Sf9 membrane polyspecificity reagent, FACS + sequencing; frameworks hold sequencing errors
Procedure, shortened: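 Using colony PCR, genes from sorted yeast display clones were amplified, then sequenced on MiSeq at 2 × 250 and filtered by CDR length. The clones had been stained with 10% biotinylated, detergent-solubilized Sf9 membrane reagent for 1 hour at 4 °C and sorted by FACS into low and high (top ~1%) gates on anti-HA and streptavidin fluorescence. Polyreactivity labels come from the gate of origin.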

| Sequence | polyreactivity (PSR sort gate) |
| --- | --- |
| QVQLVESGGGLVQAGGSLRLSCAASGITFRTYAMGWYRQAPGKERELVAAISGSSTSTYYADSVKGRFTISRDNAKNTVYLLMNSLKPEDTAVYYCAAGYRVSVYRYYYWGQGTQVTVSS | high polyreactivity |
| QVQIVESGGGLVQAGGSLRLSCAASGRIFYRYDMGWYRQAPGKERELVAVISGGGTYYADSVKGRFTISRDNAKNTVYLQMNSLKPEDTAVYYCAADDGVSLVSPYYGGYDYWGQGTQVTVSS | low polyreactivity |
| QVQLVESGGGLVQAGGSLRLSCAASGRIFGWNAMGWYRQPPGKERELVAAISADGNTYYADSVKGRFTISRDNAKNTVYLQMNSLKPEDTAVYYCNAYVYSGYSIRDYWGQGTQVTVSS | high polyreactivity |
| QVQLVETGVGLVQAGGSLRVICAASGLTFYLYAMGWNRQAPGKERELAAAISSTGITNFADSVKGRFTISRDNAKNTVYLQMTSLKPEDTAVYYCNADYHPFFFEFNYWGKGTQVTVSS | high polyreactivity |
| QVQLVESGGRLVQAGGILRLSCAASGRSFYFYAMGWYRKAPGKERELVAAITRGDDTNYADSVKGRFTISRDNAKNTVNLQMNSLKPEDTAVYYFGYATEYDYWGQGTQVTVSS | low polyreactivity |
| QVQLVESGGGLVKAGGSLRLSSAATGFIFAYYDMGWYRQAPGKERELVAAISSRGGTYYADSVKGRFTISRDNATITVYLKMNCLKPEDTAVYDCAAASYTWVSRGYEYWGQGTQVTVSS | high polyreactivity |
| QVQLVESGGGLVQAGGSLRLSCAASGSTFSFYAMGWYRQAPGKERELVAAISRSGGSTFYADSVKGRFTISRDNAKNTFYLQMNSLKAEDTAVYYCAAEYAYVPGWYEYWGQGTQVTVSS | high polyreactivity |
| QVQLVESGGGLVQAGGSLRLSCAASGITFNYYDMGWYRQEPWKARELVATINRSGGTTYYADSVKGRFTISRDTAKNTVYLQMNTMKPEDTAVYYCNALYSSRGRYHSGYDYWGQGTQVTVSS | high polyreactivity |
| QVQLVESGAGLVQAGGILRLSCAASGRIIAYYAMGWYRQAPGKERELVAAINWSGGRTYYADSVKGRFTISRDNAKNTVYLQMNSLKPEDTAVYYCAARVSYGYDYWGQGTQVTVSS | high polyreactivity |
| QVQLVESGGGLVQAGGSLRLSCAASGRILRQYAMGWYRQAPGKERELVARISYSGGSTYYADSVKGRFTISRDNAKNTVYLQMNSLKPEDTAVYYCAARRPYKYDYWGQGTQVTVSS | high polyreactivity |
| QVQLVESGGGLVQAGGSLRLSCAASGSIFSFYAMGWYRQAPGKERELVATISSGDNTNYADSVKGRFTISRDNAKNTVYLQMISLKPEDTAVYYCAADAWGVDREYDYWGQGTQVTVSS | low polyreactivity |
| QVQLVESGGGLVQAGGSLRLSCAASGIIFRYYAMGWYRQAPGKERELVAAITVNGGRTYYADSVKGRFTISRDNAKNTVYLQMNSLKPEDTAVYYCAAYPHRYRVTPYPSVVSLDNYWGQGTQVTVSS | low polyreactivity |
| QVHLVESGGGLVQAGGSLRLSCAASGSTFTSYAMGWYRQAPGKERELVATISKISGSTYYADSVKGRFTISRDNAKNTVYLQMNSLKPEDTAVYYCAAKQGWVQSSILWYRAYGTLNVRRERMDYWGQGTQVTVSS | high polyreactivity |
| QVQLVESGGGLVQAGGSLRLSCAASGRTFIYYAMGWYRQAPRKERELVATIRGSSTRTYYADSVKGRFTISRDNAKNTVYLQMNSLKPEDTAVYYCAARGTSRKYYYWGQGTQVTVSA | high polyreactivity |
| QVQLVESGGGLVQAGGSLRLSCAASGITFFGKYAMGWYRQAPGKERELVAAISWSGGRTYYADSVKGRFTISRDNAKNTVYLQMNSLKPEDTAVYYCAVYPRDAERYGYWGQGTQVTVSS | high polyreactivity |
| QVQLVESGGGLVQAGASLRLSCAASASTFKGNAMGWYRQAPGKERELVAAINRSGTSTYYADSVKGRFTISRDNAKNSVYLQMNSLKPEDTAVYYCAKNYFGHRFDYWGQGTQVTVSS | high polyreactivity |
| QVQLVESGGGLVQAGGSLRLSCAASGYTFTIYALGWYRQAPGKEMELVASISIDGSTYYADSVKGRFTISRDNAKNTVYLQMNSLKPEDTAVYYCAADYYYYTPGFDYWGQGTQVTVSS | low polyreactivity |
| QVQLVESGGGLDQAGGSLRLSCAASGRISVFYAMGWYRQAPGKERELVAAISRGSSTYYADSVKGLFTISRDNAKNTVYLQMNSLKPEETAVYYCNRARYYLYDGGYWGQGTQVTVSS | high polyreactivity |
| QVQLVESGGGLVQAGGSLRLSCAASGSTFHRYAMGWYRQAPGKERELVARINGSGGSTYYADSVKGRFTISRDNSKNTVYLQMNSLIPEDTAVYYCAADGLYYTYGYDYWGQGTQVTVSS | low polyreactivity |
| QVQLVESGGGLVQAGGSLRLSCAASGFTFRLYTMGWYRQAPGKERELVAAITYSGDSTYYADSVKGRFTISRDNAKNTVYLQMNSLKPEDTAVYYCAARKYYARYYWGQGTQVTVSS | high polyreactivity |
| QVQLVESGGGLVQAGGSLRLSCAASGRIFGYYTMGWYRQAPGKEREFVAAISYRGGSTYYADSVKGRFTISRDNAKNTVYLQKNSLKPEDTAVYYCNARKSYYTVRSYDSWGQGTQVTVSS | high polyreactivity |
| QVQLVESRGGLVQAGGSLRLSCAASGSIFGFYAMGWYRQAPGKERELVAAISSDGGSTYYADSVKGRFTISRDNAKNTVYLQMNSLKPEDTAVYYCAAAHGSIYDSTYYEYYYWGQGTQVTVSS | low polyreactivity |

| Sequence | polyreactivity (PSR sort gate) |
| --- | --- |
| QVQLVESGGGLVQARCSLRLSCAASGSTFLRYAMGWYRQAPGKERELVATISSSDDGTYYADSVKGRFTISRDIAKNTVYLQMNSLKPEDTAVYYCAARSWYLYYYWGQGTQVTVSS | low polyreactivity |
| QVQLVESGVGLVQAGRSLRLSCAATGIIFRDNARGSNRQAPGKERELVAANSKSGGRTYYADSVKGRFTISRDNAKNTVYLQMNSLKPDDTAVYYCAKASRYWSLYYWGQGTQVTVSS | high polyreactivity |
| QVQHVESGGGLVQAGGSLRISCAASGFIFGPYAMGWSRKAPGKERELVAAISGRDGSTYYADSVKGRFTISRDNAKNSVYLHMNSLKPEDTAVYYCAAEVWTALYYSYYGYRYYWGQGTQVTLSS | high polyreactivity |
| QVQLVESGGGLVQAGGSLRLSCAASGLIFVQYVMGWYRQAPGKERELVAAITDDGNTYYADSVKGRFTISRDNAKNTVYLQMKSLKPEDTAVYYCNAVLRSYDFWPGYGYWGQGTQVTVSS | low polyreactivity |
| QVQLVESGRGLVQAGGSLRISCAASGFTFVRYVMGWYRQAPGTESELVAAISRSGGSTHYADSVKGRFTISRDNAKNTVYFQMTSLKPEDTAVYYCAAACPRWPGQGDYWGQGTQVTVSS | high polyreactivity |
| QVLLVESGGGLVQAGGSLRLSCAASGSIFYGYPMGWYRQAPGKERELVADIRSSGGSTYYADSVKGRFTISRDNAMNTVYLQMNSLKPEDTAVYYCAADSQELHQNSDYWGQGTQVTVSS | low polyreactivity |
| QVQLVESGGGLVQAGGSLRISCAASGLTFADNAMGWYRQAPGKERELVAAISRSGSRTYYADSVKGRFTISRDNAKNTVYLQMNSLKPEDTAVYYCNAVWWYYRVFDYWGQCTQVTVSS | high polyreactivity |
| QVQLVESGGGLVQAGGSLRLSCAASGSIFYVYAMGWYRQAPGKERELVAAITWSGGSTYYADSVKGRFTISRDNAKNTVYLQMNSLKPEDTAVYYCAADEGYDYPYYYWGQGTQVTVSS | high polyreactivity |
| QVQLVESGGGLVQAGGSLRLSCAASGITFYRYGMGWYRQAPGKERELVAAITSRGGSTSYADSVKGRFTISRDNAKNTVYLQMNSLKPEDTAVYYCAAFYRRDYDYWGQGTQVTVSS | high polyreactivity |
| QVQLQESGGGLVQAGGSLRLSCAASGYITYFVGMGWYRQPPGKEREFVASIADGSNTYYADSVKGRFTISRDNAKNTVYLQRNSLKPEDTAVYYCAVVDSWTYRFDYWGQGTQVTVSS | high polyreactivity |
| QVQLVESGGGLVQAGGSLRLSCAASGSTFAYYVMGWYRQAPGKERELVAAITGTGGSTYYADSVKGRFTISRDNAKNTVYLQLNSLKPEDTAVYYCAAETPIYYGYWYDSWGQGTQVTVSS | high polyreactivity |
| QVQLVESGGGLVQAGGRLRLSCAASGRTFTPYTMGWYIKAPGKEREFVAAIRTGGNTYYADSVKGRFTISRDNAKNTVYLQMNSLKPEDTAVFYCAARDRIGYRLYYWGQGTQVTVSS | high polyreactivity |
| QVQLVESGGGLVQAGGSLRLSCAASGFTFRYYAMGWYRQAPGKEREFVAAIRWRGATTYYADSVKGRFTISRDNAKNTVLLQMNSLKPEDTAVYYCAARYVYNSDRVSERDYWGQGTQVTVSS | high polyreactivity |
| QVHLQESGGGLEQAGGSLSPSCAASGSISNGVPMGWYRQAPGEERELVATTVLGATTNYADSVKGRFTISRGNAKNPVYLQMNSLKPEETAVYYCAAPLRYDKGFSYWGQGTQVTVSS | low polyreactivity |
| QVQLVESGGGLVQAGGSIRLSCAASGSIFVSNAMGWYRQAPGKERELVAAISGGGSTYYADSVKGRFTISRDNAKNTVYLQMNSLKPEDTAVYYCAKKGGHRTYGYDSWGQGTQVTVSS | low polyreactivity |
| QVQLVESGGGLVQAGGSLRLSCAASGSTFKRNAMGWYRQAPGKERELVASISKRGGSTYYADSVKGRFTISRDNAKNTVYLQMNSLKPEDTAVYYCAKTWQNGDRNTIGSVYAYYSWGQGTQVTVSS | high polyreactivity |
| QVQLVESGGGLVQAGGSLRLSCAASGSTFRYNVMGWYRQAPGKERDLVAAITRRGSRTYYADSVKGRFTISRDNAKNTVYLQMNSLKPEDTAVYYCNKYSLSVPANDDYWGQGSQVTVSS | high polyreactivity |
| QVQLVESGGGLVQAGGSLRLSCAASGRTFIGNVMGWYRQAPGKERELVAAISKSGTRTYYPDSVKGRFTISRDNAKNTVYLQMNSLKPEYTAVYYCAKDHYPRTDDFGYWGQGTQVTVSS | high polyreactivity |
| QVQLVESGGGLVQAGGSLRLSCAAYYAMGWYRHAPGKERELVAAIDDGTSTNYADSVKGRFTISRDNAKNTVYLQMNSLKPEDTAVYYCNKLSEVTYYGSKFDYWGQGTQVTVSS | low polyreactivity |
| QFQLVESGGGLVQAGGSLRLSCAASGITFTFNARGWYRQAPGKERELVAAITWSGGSPFYADSVKGRFTISRDNAKNTVYLQLNSLNPEDTAVYYCARDTELYVRWLDYWGQGTQVTVSS | low polyreactivity |
| QVQLVESGGGLVQAGGSLRLSCAASGFTFDYNAMGWYRQAPGKERELVAAISNTGDSTYYADSVKGRFTISRDNAKNTVYLQMNSLKPEDTAVYYCAADSLFYDYWEYDYWGQGTQVTVSS | low polyreactivity |
